From publication PMC5339848

Tests used:
[1] = biological target: AP1M1 (mu subunit of the AP1 complex) (UniProt Q9BXS5); assay: competitive binding with synthetic peptides, in vitro; details: reference: unphosphorylated peptide; sites Y8
[2] = biological target: AP2M1 (mu subunit of the AP2 complex) (UniProt Q96CW1); assay: as above; details: reference: unphosphorylated peptide; sites Y8

Substance: mATG9 1-18 (from UniProt Q7Z3C6) pY8 peptide
- binding against the reference [1]: stronger
- binding against the reference [2]: stronger
